± gives the uncertainty stated by the source.
Assay: self-splicing fitness, log relative to wild type (ln ratio); higher = more splicing; Tetrahymena group I intron in knt gene, E. coli kanamycin selection, DiMSum; sequences stand for … in CUCUCU…GGAGGGAAAAGUUAUCAGGCAUGCACCUGGUAGCUAGUCUUUAAACCAAUAGAUUGCAUCGGUUUAAAAGGCAAGACCGUCAAAUUGCGGGAAAGGGGUCAACAGCCGUUCAGUACCAAGUCUCAGGGGAAACUUUGAGAUGGCCUUGCAAAGGGUAUGGUAAUAAGCUGACGGACAUGGUCCUAACCACGCAGCCAAGUCCUAAGUCAACAGAUCUUCUGUUGAUAUGGAUGCAGUUCACAGACUAAAUGUCGGUCGGGGAAGAUGUAUUCUUCUCAUAAGAUAUAGUCGGACCUCUCCUUAAUGGGAGCUAGCGGAUGAAGUGAUGCAACACUGGAGCCGCUGGGAACUAAUUUGUAUGCGAAAGUAUAUUGAUUAGUUUUGGAGUACUCGUGGUCG
Outline: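 Colonies from six replicate transformations of E. coli BL21(DE3) were pooled and amplicon-sequenced on an Illumina HiSeq 2500. The library placed an intron with all eight P1ex-region nucleotides randomised inside the knt kanamycin-resistance gene on pET-22b(+), and cells grew overnight at 37°C or 30°C on LB agar with or without 25 μg/mL kanamycin (plus 100 μg/mL carbenicillin, 50 μM IPTG, 0.2% rhamnose). Fitness is the DiMSum error-weighted combination of wild-type-normalised replicate fold changes, kanamycin versus none.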

| Sequence | self-splicing fitness (ln) (30 °C) | self-splicing fitness (ln) (37 °C) |
| --- | --- | --- |
| CAGUAGCAAUAUUACGUUUG | -1.35 ± 0.08 | -0.625 ± 0.11 |
| AAUGAGCAAUAUUACGGCCU | -1.17 ± 0.17 | -1.47 ± 0.21 |
| UCAGAGCAAUAUUACGGUAA | -3.7 ± 0.47 | -1.85 ± 0.41 |
| ACGUAGCAAUAUUACGAUUU | 0.256 ± 0.059 | -0.149 ± 0.073 |
| UUUUAGCAAUAUUACGUGUU | -4.5 ± 0.46 | -3.09 ± 0.24 |
| GUGAAGCAAUAUUACGACAA | 0.0822 ± 0.12 | 0.396 ± 0.16 |
| UAAAAGCAAUAUUACGUUCA | -0.437 ± 0.083 | -0.259 ± 0.091 |
| CCGAAGCAAUAUUACGAAAG | -1.21 ± 0.073 | -0.965 ± 0.092 |
| CUCUAGCAAUAUUACGAGUA |  | -1.18 ± 0.21 |
| CGUGAGCAAUAUUACGCGGA |  | -1.62 ± 0.39 |
| ACCCAGCAAUAUUACGACAG | -3.36 ± 0.12 | -1.67 ± 0.11 |
| CCGGAGCAAUAUUACGUAGG | -3.55 ± 0.26 | -2.66 ± 0.3 |
| AUGUAGCAAUAUUACGAAAC | -2.77 ± 0.24 | -1.76 ± 0.27 |
| CAACAGCAAUAUUACGUCCU | -2.08 ± 0.071 | -1.6 ± 0.094 |
| UUUUAGCAAUAUUACGUCAC | -2.38 ± 0.37 |  |
| GUUCAGCAAUAUUACGCUUC | -0.641 ± 0.11 | -0.661 ± 0.14 |
| UAGUAGCAAUAUUACGGAGA | -3.56 ± 0.47 | -3.35 ± 0.35 |
| ACCUAGCAAUAUUACGAACC | -1.67 ± 0.16 | -1.07 ± 0.19 |
| GAAUAGCAAUAUUACGAUGC | -1.02 ± 0.095 | -0.245 ± 0.12 |
| ACUAAGCAAUAUUACGCAAG | -1.79 ± 0.074 | -1.49 ± 0.096 |
| AUCUAGCAAUAUUACGGGGG | -1.65 ± 0.11 | -1.9 ± 0.15 |
| GGGAAGCAAUAUUACGGUAC | -1.47 ± 0.25 | -1.08 ± 0.27 |
| UAACAGCAAUAUUACGAUCU | -1.04 ± 0.073 | 0.151 ± 0.099 |
| UCACAGCAAUAUUACGUAGU | -3.38 ± 0.12 | -2.6 ± 0.17 |
| UGUUAGCAAUAUUACGCAAA | -0.989 ± 0.22 | -0.62 ± 0.32 |

| Sequence | self-splicing fitness (ln) (30 °C) | self-splicing fitness (ln) (37 °C) |
| --- | --- | --- |
| CUUGAGCAAUAUUACGAAUU | -3.53 ± 0.33 | -3.19 ± 0.47 |
| GGACAGCAAUAUUACGUGGC | -3.02 ± 0.26 | -0.384 ± 0.16 |
| CACCAGCAAUAUUACGAGUU | -2.42 ± 0.075 | -1.65 ± 0.087 |
| GUAUAGCAAUAUUACGCUUU | -3.51 ± 0.24 | -2.28 ± 0.17 |
| CACGAGCAAUAUUACGUACC | -2.54 ± 0.5 |  |
| GUCUAGCAAUAUUACGUGGU | -2.5 ± 0.09 | -0.907 ± 0.078 |
| GUAUAGCAAUAUUACGUCUU | -1.64 ± 0.14 | 0.0317 ± 0.13 |
| CAUUAGCAAUAUUACGCGAA | -2.65 ± 0.19 | -1.17 ± 0.19 |
| AGCAAGCAAUAUUACGAGAA |  | -2.27 ± 0.4 |
| CACAAGCAAUAUUACGAGGC | -3.54 ± 0.16 | -2.87 ± 0.19 |
| CUAGAGCAAUAUUACGGGAC | -2.5 ± 0.16 | -1.05 ± 0.18 |
| ACUGAGCAAUAUUACGAUUC | -2.78 ± 0.5 | -1.57 ± 0.31 |
| UCAGAGCAAUAUUACGGCCU | -2.39 ± 0.34 | -2.73 ± 0.31 |
| CCUGAGCAAUAUUACGACUU | -3.87 ± 0.27 | -2.46 ± 0.24 |
| GCUUAGCAAUAUUACGCGCU | -2.33 ± 0.16 | -2.47 ± 0.21 |
| UGUCAGCAAUAUUACGCAUU | -1.74 ± 0.09 | -0.133 ± 0.092 |
| AACGAGCAAUAUUACGUAGA | -2.99 ± 0.12 | -2.43 ± 0.17 |
| GCCUAGCAAUAUUACGCUUA | -1.01 ± 0.1 | -0.807 ± 0.11 |
| UCAAAGCAAUAUUACGAUCA | -0.91 ± 0.12 | -0.719 ± 0.11 |
| AAUUAGCAAUAUUACGUGGU | -4.47 ± 0.26 | -2.18 ± 0.14 |
| UGUAAGCAAUAUUACGCGAA | -2.68 ± 0.14 | -1.33 ± 0.17 |
| AAUUAGCAAUAUUACGUUGA | -2.74 ± 0.15 | -1.55 ± 0.11 |
| UGGGAGCAAUAUUACGGCGA | -1.73 ± 0.36 | -1.23 ± 0.28 |
| UGCGAGCAAUAUUACGGGGG | -3.34 ± 0.26 | -2.36 ± 0.29 |
| CUUCAGCAAUAUUACGCAUA | -4.27 ± 0.37 | -1.82 ± 0.17 |

| Sequence | self-splicing fitness (ln) (30 °C) | self-splicing fitness (ln) (37 °C) |
| --- | --- | --- |
| AAUGAGCAAUAUUACGGAAA | -2.99 ± 0.48 | -1.86 ± 0.31 |
| AGGCAGCAAUAUUACGCUGC |  | -2.5 ± 0.38 |
| CGUCAGCAAUAUUACGGUCA | -0.717 ± 0.08 | 0.201 ± 0.1 |
| UUUAAGCAAUAUUACGGACA | -0.552 ± 0.17 | -0.126 ± 0.16 |
| GUCCAGCAAUAUUACGUAGA | -0.646 ± 0.064 | -0.201 ± 0.086 |
| CUCAAGCAAUAUUACGUAUG | -2.91 ± 0.099 | -2.61 ± 0.12 |
| GUGAAGCAAUAUUACGAUCC | -3.08 ± 0.31 | 0.244 ± 0.18 |
| GUGGAGCAAUAUUACGCGCG | -1.79 ± 0.25 | -2.11 ± 0.31 |
| CGACAGCAAUAUUACGCCUA | -2.48 ± 0.19 | -1.01 ± 0.17 |
| CCCGAGCAAUAUUACGUGCG | -4.04 ± 0.21 | -2.82 ± 0.21 |
| UCACAGCAAUAUUACGUAAA | -2.14 ± 0.069 | -1.18 ± 0.084 |
| GACCAGCAAUAUUACGUGUC | -3.52 ± 0.16 | -3.05 ± 0.24 |
| GGACAGCAAUAUUACGUCAU | -1.17 ± 0.095 | -0.489 ± 0.1 |
| GGGCAGCAAUAUUACGUGGU | -2.88 ± 0.17 | -1.58 ± 0.13 |
| CUAUAGCAAUAUUACGUCUG | 0.043 ± 0.088 | -0.099 ± 0.1 |
| UAGGAGCAAUAUUACGGGUA | -1.45 ± 0.17 | -2.13 ± 0.21 |
| GUAUAGCAAUAUUACGGAUC | -0.654 ± 0.14 | -0.016 ± 0.17 |
| UAGUAGCAAUAUUACGCUUU | -2.3 ± 0.25 | -2.18 ± 0.18 |
| UAGAAGCAAUAUUACGGGCG | 0.0568 ± 0.11 | -0.38 ± 0.13 |
| GCCUAGCAAUAUUACGGUGA | -1.09 ± 0.067 | -0.113 ± 0.073 |
| UUUUAGCAAUAUUACGCCGU | -2.64 ± 0.32 | -2.8 ± 0.44 |
| AAGCAGCAAUAUUACGCAUA | -2.01 ± 0.11 | -0.237 ± 0.1 |
| GGAGAGCAAUAUUACGAAAA |  | -0.772 ± 0.31 |
| AUGCAGCAAUAUUACGUUUU | -2.8 ± 0.1 | -1.65 ± 0.099 |
| GCCGAGCAAUAUUACGGCAU | -4.31 ± 0.46 | -3.06 ± 0.35 |

| Sequence | self-splicing fitness (ln) (30 °C) | self-splicing fitness (ln) (37 °C) |
| --- | --- | --- |
| AUAGAGCAAUAUUACGUAGG | -2.32 ± 0.18 | -2.65 ± 0.38 |
| CCAUAGCAAUAUUACGUGAG | -0.355 ± 0.045 | 0.00486 ± 0.066 |
| UAGAAGCAAUAUUACGAUAA | -1.05 ± 0.11 | -0.854 ± 0.12 |
| CCUGAGCAAUAUUACGUCUU |  | -2.42 ± 0.23 |
| CAGCAGCAAUAUUACGUUCC |  | -2.13 ± 0.25 |
| GCUGAGCAAUAUUACGGAUA | -2.7 ± 0.16 | -1.8 ± 0.14 |
| CUUCAGCAAUAUUACGCCGU | -3.17 ± 0.35 | -2.05 ± 0.29 |
| CCAGAGCAAUAUUACGACAA |  | -2.03 ± 0.45 |
| AAUGAGCAAUAUUACGCGAU | -3.63 ± 0.41 | -0.995 ± 0.22 |
| UAUUAGCAAUAUUACGUUUA | -1.6 ± 0.21 | 0.132 ± 0.2 |
| CUCCAGCAAUAUUACGGAGG | -3.04 ± 0.17 | -2.44 ± 0.13 |
| UGGUAGCAAUAUUACGCCGU | -1.56 ± 0.27 | -1.42 ± 0.36 |
| GAUCAGCAAUAUUACGUUAG | -2.05 ± 0.12 | -1.92 ± 0.17 |
| GCCUAGCAAUAUUACGUCAC | -3.49 ± 0.24 | -2.04 ± 0.22 |
| GAAGAGCAAUAUUACGGCAG | -4.54 ± 0.36 | -1.97 ± 0.23 |
| GAACAGCAAUAUUACGCAAG | -3.31 ± 0.23 | -1.41 ± 0.17 |
| AACGAGCAAUAUUACGUCUC | -3.67 ± 0.29 | -3.03 ± 0.27 |
| AGUCAGCAAUAUUACGACCA | -0.2 ± 0.12 | 0.345 ± 0.14 |
| UUUGAGCAAUAUUACGUUUG | -3.29 ± 0.26 | -2 ± 0.31 |
| AGUAAGCAAUAUUACGAAUG | -1.15 ± 0.28 |  |
| GAGGAGCAAUAUUACGGGUG | -3.55 ± 0.27 | -1.95 ± 0.32 |
| AAAAAGCAAUAUUACGCGAG | -0.943 ± 0.085 | -1.06 ± 0.11 |
| AUCGAGCAAUAUUACGGGUU | -3.65 ± 0.23 | -2.32 ± 0.2 |
